# In publication doi:10.1101/2020.05.05.078790:
# Biological target: HLA-E*0103 heavy chain-β2M complex (human)
# Test: ELISA
row,Substance,percent of the VL9 signal after background subtraction
1,BZLF1 (…) (peptide),41%
2,RL9HIV (…) (peptide),43%
3,RL9SIV (…) (peptide),22%
